Test results from US20190345207A1 (Pieris, published 2019).

Molecular target: T1, cynomolgus LAG-3 on CHO cells stably transfected with cyLAG-3 (CHO-cyLAG-3) (cynomolgus monkey)
T1 construct: whole, on cells; also called CHO::cynomolgus LAG-3
Assay: FACS on transfected CHO cells
Method: To perform the experiment, LAG-3-positive and negative Flp-In CHO cells were incubated with lipocalin muteins, and bound mutein was labeled using fluorescently labeled anti-hTlc antibodies, and then the signal was detected using FACS analysis as described in this example.
5×10⁴ cells per well were pre-incubated for 1 h in ice-cold PBS containing 5% fetal calf serum (PBS-FCS). […] Cells were subsequently washed and analyzed using a intellicyt IQue Flow cytometer (Intellicyt). Fluorescent data generated by lipocalin mutein binding to LAG-3 expressing cells were analyzed by gating for LAG-3 expressing CHO cells and using Forecyt@ software and resulted geometric fluorescent mean were plotted and fitted using Graphpad software.

EC50: 46.8 nM
B1: benchmark anti-LAG-3 antibody (SEQ ID NOs: 5 and 6) (antibody, human IgG4 S228P, kappa, V domains shown)
VH: QVQLQQWGAGLLKPSETLSLTCAVYGGSFSDYYWNWIRQPPGKGLEWIGEINHRGSTNSNPSLKSRVTLSLDTSKNQFSLKLRSVTAADTAVYYCAFGYSDYEYNWFDPWGQGTLVTVSS
VL: EIVLTQSPATLSLSPGERATLSCRASQSISSYLAWYQQKPGQAPRLLIYDASNRATGIPARFSGSGSGTDFTLTISSLEPEDFAVYYCQQRSNWPLTFGQGTNLEIKR
notes: also called benchmark antibody
